According to PMC4422123, “The peroxisomal protein import machinery displays a preference for monomeric substrates” (Open Biology, 2015):
Values belong to the molecule of their own block, whether it stands above or below them.

Columns and labels:
[1] = target: acyl-CoA oxidase 1 (ACOX1), untagged, in vitro synthesized (mouse) (UniProt Q9R0H0); test: sucrose gradient centrifugation; 35S-labelled protein synthesized (30 min ACOX1, 45 min UOX) and chased for 4 h with cycloheximide without PEX5; 5-30% sucrose in buffer B, 39 000 r.p.m., 29 h, 4°C
[2] = target: the molecule itself; test: as above

stoichiometry N [1]: 2
Molecule: acyl-CoA oxidase 1 (ACOX1), untagged, in vitro synthesized (from UniProt Q9R0H0 1-661) (natural protein)

B1: urate oxidase (UOX), untagged, in vitro synthesized (natural protein, mouse, UniProt P25688 1-303, looked up)
chain: MAHYHDNYGKNDEVEFVRTGYGKDMVKVLHIQRDGKYHSIKEVATSVQLTLRSKKDYLHGDNSDIIPTDTIKNTVHVLAKLRGIRNIETFAMNICEHFLSSFNHVTRAHVYVEEVPWKRFEKNGIKHVHAFIHTPTGTHFCEVEQMRNGPPVIHSGIKDLKVLKTTQSGFEGFLKDQFTTLPEVKDRCFATQVYCKWRYQRRDVDFEAIWGAVRDIVLQKFAGPYDKGEYSPSVQKTLYDIQVLSLSQLPEIEDMEISLPNIHYFNIDMSKMGLINKEEVLLPLDNPYGKITGTVKRKLPSRL
modifications: 35S-methionine labelled
notes: mouse urate oxidase, cDNA amplified with primers from the start codon to the stop codon, in pGEM4; also called mUOX; monomeric UOX; source: in vitro translated (rabbit reticulocyte lysate, TnT T7 QuickCoupled kit), not purified
stoichiometry N [2]: 4
